Laboratory results reported in patent publication US7902341B2, “Methods and compositions for modulating somatolactogenic functions” (Trustees of the University of Pennsylvania, priority 1999, dated 2011).

Tested on: Nb2 cells
Test: Nb2 cell proliferation (3H-thymidine) to assess CypB modulation of somatolactogenic action
Type: cell-based, rat
Method: The effect of exogenous CypB on PRL-driven proliferation was examined with the rat Nb2 T-cell and the human T47D breast cancer line. […] This dose-dependent biphasic effect was most prominent at physiologic concentrations (5-10 mM) of CypB and PRL (50 pM) found in human serum. […] To determine the effect of CypB on cellular growth driven by the larger family of cytokines, to which PRL belongs, proliferation driven by interleukin-2 (IL-2), IL-3 and GH was examined.
Nb2-cells (5×10^4; PRL-dependent, rat T-lymphoma) were plated in each well of 96 well plates in a defined DMEM-serum free medium (0.1 mM 2-mercaptoethanol, 1% penicillin/streptomycin, and 1% ITS+(Calbiochem)). Cells were rested for 24 hours at 37° C. in this defined medium in the absence of PRL before the addition of 5-500 pM PRL (either as human pituitary isolated PRL, National Hormone and Pituitary Program, NIDDK; recombinant human PRL from E. coli, Genzyme; or recombinant human PRL from Drosophila S2 cells) alone or premixed with 1-2000 fold excess of purified CypB. Parallel studies were performed using human pituitary-derived GH (National Hormone and Pituitary Program, NIDDK). Cultures were incubated for 48 hours at 37° C. and proliferation was evaluated by the addition of 0.5 μCi of ^3H-thymidine for four hours followed by harvesting and scintillography. […]

Row | Molecule | bioactivity in Nb2 bioassays (protein secreted by Drosophila S2 cells) | PRL concentration at which the sigmoid Nb2 growth curve plateaus (Nb2 cells stimulated with PRL alone)
1 | Myc-tagged PRL: recombinant human PRL with myc-tag expressed in Drosophila S2 cells (protein, left off: small tags and cut ends, recombinant human PRL with myc-tag expressed in Drosophila S2 cells) LPICPGGAARCQVTLRDLFDRAVVLSHYIHNLSSEMFSEFDKRYTHGRGFITKAINSCHTSSLATPEDKEQAQQMNQKDFLSLIVSILRSWNEPLYHLVTEVRGMQEAPEAILSKAVEIEEQTKRLLEGMELIVSQVHPETKENEIYPVWSGLPSLQMADEESRLSAYYNLLHCLRRDSHKIDNYLKLLKCRIIHNNNC | functionally bioactive | 
2 | PRL: human prolactin, pituitary isolated or recombinant (protein, left off: small tags and cut ends, human prolactin, pituitary isolated or recombinant) LPICPGGAARCQVTLRDLFDRAVVLSHYIHNLSSEMFSEFDKRYTHGRGFITKAINSCHTSSLATPEDKEQAQQMNQKDFLSLIVSILRSWNEPLYHLVTEVRGMQEAPEAILSKAVEIEEQTKRLLEGMELIVSQVHPETKENEIYPVWSGLPSLQMADEESRLSAYYNLLHCLRRDSHKIDNYLKLLKCRIIHNNNC |  | approximately 2 ng PRL/ml
